Reference: US11278600B2, “Human alpha-galactosidase variants” (Codexis, Inc., priority 2014, dated 2022)
Changes are numbered by the printed parent chain. Names may count otherwise.

B1: Variant 218: GLA variant; M322I/E367N/R373K relative to SEQ ID NO: 10 (protein)
chain: LDNGLARTPTMGWLHWERFMCNLDCQEEPDSCISEKLFMEMAELMVSEGWKDAGYEYLCIDDCWMAPQRDSEGRLQADPQRFPHGIRQLANYVHSKGLKLGIYADVGNKTCAGFPGSFGYYDIDAQTFADWGVDLLKFDGCYCDSLENLADGYKHMSLALNRTGRSIVYSCEWPLYMWPFQKPNYTEIRQYCNHWRNFADIDDSWASIKSILDWTSFNQERIVDVAGPGGWNDPDMLVIGNFGLSWNQQVTQMALWAIMAAPLFMSNDLRHISPQAKALLQDKDVIAINQDPLGKQGYQLRQGDNFEVWERPLSGLAWAVAIINRQEIGGPRSYTIAVASLGKGVACNPACFITQLLPVKRKLGFYNWTSRLKSHINPTGTVLLQLENTMQMSLKDLL
modifications: Synthetic Polypeptide sequence of Variant No. 218
B2: Variant 402: GLA variant; polypeptide sequence of SEQ ID NO: 42 (protein)
chain: B1 chain with L44R, S166P, F217R, N247D, Q302K, L316D, A337P, K362Q
modifications: Synthetic Polypeptide sequence of Variant No. 402

Columns and labels:
[1] = Thermostability of purified GLA variants (Sypro Orange melting); type: physicochemical; conditions: purified enzyme 20 μg/ml in 1×PBS, 30 to 75° C. at 0.5° C./min
Procedure: (§1) GLA variants were purified from mammalian culture supernatant essentially as known in the art (See, Yasuda et al., Prot. Exp. Pur., 37, 499-506 [2004]). Concanavalin A resin (Sigma Aldrich) was equilibrated with 0.1 M sodium acetate, 0.1 M NaCl, 1 mM MgCl2, CaCl2, and MnCl2 pH 6.0 (Con A binding buffer). Supernatant was diluted 1:1 with binding buffer and loaded onto the column. The column was washed with 15 volumes of Concanavalin A binding buffer, and samples were eluted by the addition of Concanavalin A binding buffer including 0.9 M methyl-α-D-mannopyranoside and 0.9 M methyl-α-D-glucopyranoside. Eluted protein was concentrated and buffer exchanged three times using a Centricon® Plus-20 filtration unit with a 10 kDa molecular weight cut off (Millipore) into ThioGal binding buffer (25 mM citrate-phosphate, 0.1 M NaCl, pH 4.8). Buffer exchanged samples were loaded onto a Immobilized-D-galactose resin (Pierce) equilibrated with ThioGal binding buffer. The resin was washed with six volumes of ThioGal binding buffer and eluted with 25 mM citrate phosphate, 0.1 M NaCl, 0.1 M D-galactose, pH 5.5. […]
The thermostability of WT GLA (SEQ ID NO:5) and SEQ ID NO:42 were determined to assess their overall stability. […] The plates were heated from 30 to 75° C. at 0.5° C./min on a RT-PCR machine and Sypro Orange fluorescence was monitored. […]

[2] = Serum pharmacokinetics of purified GLA variants in rats; type: in vivo, Sprague-Dawley rats; conditions: rat, intravenous 1 mg/ml at 1 ml/kg; four hours post-administration
Procedure: Purified GLA variants produced as described in Example 4 were assessed for stability in the serum of live rats. WT GLA (SEQ ID NO:5) or SEQ ID NO:42 at 1 mg/ml were administered intravenously at 1 ml/kg to three naïve jugular vein cannulated Sprague-Dawley rats (7-8 weeks old) each. Prior to administration and at 5, 15, 30, 60, 120, and 240 minutes post-administration, […] was collected from each rat in an EDTA tube and centrifuged at 4° C. and 6000 rpm to generate >80 μL of serum per sample. Samples were frozen and stored on dry ice prior to analysis. For analysis, serum (10 μL) was added to 40 μL of 5 mM MUGal in McIlvaine buffer pH 4.4, and incubated at 37° C. for 1 h. Samples were quenched with 50 μL of 1 M sodium carbonate, diluted 1:100 in 1 M sodium carbonate and analyzed by fluorescence spectroscopy (Ex. 355, Em. 448). Four hours post-administration SEQ ID NO:42 retained 15.3% of maximal activity, while WT GLA retained only 0.66% (See, FIG. 9).

[3] = Thermostability of GLA variants expressed in HEK293T cells; type: biochemical; conditions: HEK293T supernatants; 30-54° C. for 1 h; residual MUGal activity
[4] = Activity on alternative substrate NBD-GB3 (TLC); type: biochemical; conditions: HEK293T culture supernatant, pH 4.8, 37° C., 1 h
Procedure: To confirm that improved activity in MUGal hydrolysis corresponded to more native substrates, mammalian cell-expressed GLA variants were assayed using N-Dodecanoyl-NBD-ceramide trihexoside (NBD-GB3) as substrate. HEK293T culture supernatant (10 μL), 100 mM sodium citrate pH 4.8 (80 μL), and NBD-GB3 (0.1 mg/ml) in 10% ethanol (10 μL) were added to microcentrifuge tubes. Samples were inverted to mix, and incubated at 37° C. for 1 h. The reaction was quenched via addition of 50 μL, methanol, diluted with 100 μL, chloroform, vortexed and the organic layer was isolated for analysis. The organic phase (10 μL) was spotted onto a silica plate and analyzed by thin layer chromatography (chloroform:methanol:water, 100:42:6), detecting the starting material and product using a 365 nm UV lamp.

[5] = pH stability of purified GLA variants over time; type: biochemical; conditions: purified enzyme; McIlvaine buffer pH 4.1 or 7.5, 0-24 h at 37° C.
Procedure: as §1, with “buffer.” for “buffer. The resin was washed with six volumes of ThioGal binding buffer and eluted with 25 mM citrate phosphate, 0.1 M NaCl, 0.1 M D-galactose, pH 5.5.”
To confirm that purified GLA variants show the desired pH stability observed after expression in yeast, WT GLA (SEQ ID NO:5) and SEQ ID NO:42 were incubated in acidic or basic buffers and analyzed for residual activity. […] Samples were quenched with 100 μL, of 1 M sodium carbonate, diluted 1:4 in 1 M sodium carbonate and analyzed by fluorescence spectroscopy (Ex. 355, Em. 448).

| Molecule | melting temperature [1] [°C] | GLA activity retained in serum, % of maximal activity [2] [%] | increase of Tm of the enzyme [3] [°C] | conversion of NBD-GB3 [4] | stability (residual activity) under acid and basic challenge compared to WT GLA [5] |
| --- | --- | --- | --- | --- | --- |
| WT GLA: wild-type mature human alpha galactosidase A (GLA), polypeptide sequence of SEQ ID NO: 5 [reference compound] | 37 | 0.66 |  |  |  |
| B1 |  |  | 4 | Significant conversion |  |
| B2 | 55 | 15.3 |  |  | considerably more stable |
